According to patent US20260219282A1:
Each block holds one binder with its values, some of them ahead of it.

Columns and labels:
[1] = target: monoclonal antibody raised against the C4A3-HNE target sequence; experiment: competitive ELISA: standard peptide against the biotinylated peptide on a streptavidin plate, HRP-conjugated antibody; mean of the standard curves
[2] = target: synthetic peptide mimicking the type IV collagen alpha-3 chain, undigested
[3] = target: synthetic peptide mimicking the type IV collagen alpha-4 chain, undigested
[4] = target: monoclonal antibody raised against the C4A4-HNE target sequence; experiment: competitive ELISA: standard peptide against the biotinylated peptide on a streptavidin plate, HRP-conjugated antibody; mean of the standard curves

IC50 [1]: 0.0731 µg/mL
B1: C4A3-HNE standard/selection peptide … (peptide)
peptide: EGTRPGPPGP

B2: active neutrophil elastase purified from human cells (protein)
chain: IVGGRRARPHAWPFMVSLQLRGGHFCGATLIAPNFVMSAAHCVANVNVRAVRVVLGAHNLSRREPTRQVFAVQRIFENGYDPVNLLNDIVILQLNGSATINANVQVAQLPAQGRRLGNGVQCLAMGWGLLGRNRGIASVLQELNVTVVTSLCRRSNVCTLVRGRQAGVCFGDSGSPLVCNGLIHGIASFVRGGCASGLYPDAFAPVAQFVNWIDSIIQ
release of the neo-epitope after 4 hours of incubation with active HNE, detected by the C4A3-HNE ELISA [2]: HNE was able to generate both neo-epitopes
release of the neo-epitope after 4 hours of incubation with active HNE, detected by the C4A4-HNE ELISA [3]: HNE was able to generate both neo-epitopes

IC50 [4]: 0.0336 µg/mL
B3: C4A4-HNE standard/selection peptide … (peptide)
peptide: TYPGRHGPPG
